This note sets out measurements from patent US20250027068.

The labels stand for the following.
B1: PRT-667 (protein)
chain: MQITSVWTKGVTPLTPEQFRYNNEDVFHAPYLAHQGWYDITKAFNGKDNLLCGAATAGNMLHWWFDQNKEEIEAYLKKHPEKQKIIFNNQELFDLRKAINTKDSQTNSQLFNYFRDKAFPNLSARQLGVMPDLVLDMFINGYYLNLNKTQSTDVNRPYQDKDKRGGIFDHVFTRGDQTTLLTARHDLKNKTLNDISQLIKQELQEGKALALSHTYANVSISHVINLWGADFNAEGNLEAIYVTDSDSDASIGMKKYFVGKNASGHVAISAKKIEGENIGAQVLGLFTLSSGKEIWQKLSLEHHHHHH
B2: PRT-510 (protein)
chain: MITSVWTKGVTPPTDFRKIVDGNIAYYHAPYKAGQGWYDITKAFDGGDDLLCGAATAGNMLHWWFDQNKEEIEAYLKKHPEKQKIMFGDQELLDVRKVINTKDSQTNSALFNYFKDKAFPNLSARRLGVMPDLVLDMFINGYYLNVYKTQTTDVNRTYQTKDRRGGIFDAVFTRGDQSKLLTERHDLKNKTLKEISDLIKQELTEGKALGLSHTYANVRINHVINLWGADFDSNGNLEAIYVTDSDSNASIGMKKYFVGVNSAGKVAISAKEIKEDNIGAQVLGLFTLSTGQDIWNQTNLEHHHHHH
B3: PRT-521 (protein)
chain: MVTSVWTKGVTPPADFTQGEDVFHAPYVANQGWYDITKTFNGKDNLLCGAATAGNMLHWWFDQNKEYIEAYLKKHPEKQKIIFNNQELFDLKAAINTKGSQKNSELFNYFRDKAFPNLSARRLGVFPDLVLDMFINGYYLNVTKTQTTDVNRTYQEKDKRGGIFDAVFTRGVQSKLLTSRHDLKNKGLKEISDLIKQELTEGKALGLSHTYANVRINHVINLWGADFDSDGNLKAIYVTDSDTNASIGMKKYFVGVNSAGKVAISAKEIKEDNIGAQVLGLFTLSTGQDIWNQTNLEHHHHHH
B4: PRT-520 (protein)
chain: MVTSVWTKGVTPPTDFRKIVDGNIAYYHAPYKAGQGWYDITKAFDGGDNLLCGAATAGNMLHWWFDQNKEYIEAYLKKHPEKQKIIFNNQELFDLKAAINTKGSQKNSELFNYFRDKAFPNLSARRLGVFPDLVLDMFINGYYLNVTKTQTTDVNRTYQEKDKRGGIFDAVFTRGVQSKLLTSRHDLKNKGLKEISDLIKQELTEGKALGLSHTYANVRINHVINLWGADFDSDGNLKAIYVTDSDTNASIGMKKYFVGVNSAGKVAISAKEIKEDNIGAQVLGLFTLSTGQDIWNQTNLEHHHHHH
B5: PRT-492 (protein)
chain: MVTSVWTKGVTPPTDFRKIVDGNIAYYHAPYKAGQGWYDITKAFDGGDNLLCGAATAGNMLHWWFDQNKEQIENYLKKHPEKQKIIFNNQELFDLKAAIDTKDSQTNSELFNYFKEKAFPYLSTKHLGVFPDHVIDMFINGYRLSLTNHGPTPVKRGSKDKRGGIFDAVFTRGVQSKLLTNRHDLKNKTLKEISDLIKQELTEGKALGISHTYANVRINHVINLWGADFDAEGNLEAIYVTDSDTNASIGMKKYFVGVNSNGKVAISAKEIEEDNIGAQVLGLFTLSTGQDIWNQTNLEHHHHHH
B6: PRT-450 (protein)
chain: MVTSVWTKGVTPPTDFRKIVDGNIAYYHAPYKAGQGWYDITKAFDGGDDLLCGAATAGNMLHWWFDQNKDQIEAYLKEHPEKQKINFNGEQMFDVKEAIDTKDDQTNSELFNYFKEKAFPYLSTKHLGVFPDHVLDMFINGYRLSLTNHGPTPVKEGSKDPRGGIFDAVFTRGDQSKLLTSRHDLKNKTLKEISDLIKQELTEGKALALSHTYANVRINHVINLWGADFDSNGNLEAIYVTDSDSNASIGMKKYFVGVNSAGKVAISAKEIEDDNIGAQVLGLFTLSTGQDIWNQTNLEHHHHHH
B7: PRT-462 (protein)
chain: B6 chain with A74R, D104S, A208G, N232E, E236K, E272K, D273E
B8: PRT-688 (protein)
chain: MQITSVWTKGVTPLTMDDFTINNEDVIHAPYVANQGWYDITKTFNGKDNLLCGAATAGNMLHWWFDQNKEEIERYLKKHPEKQKIIFNNQELFDLKEAINTKDSQTDSKLFNYFRDKAFPNLSARQLGVMPDLVLDMFINGYYLNVFKTQSTDVNRPYDTKDKRGGIFDHVFTRGDQSTLLTARHDLKNKTLKEISDIIKQELTEGKALALSHTYANVSISHVINLWGADFNAEGNLEAIYVTDSDANASIGMKKYYVGVNSHGKVAISAKKIEGENIGAQVLGLFTLSSGKDIWQKLSLEHHHHHH
B9: PRT-485 (protein)
chain: MVTSVWTKGVTPPANFTQGEDVFHAPYKANQGWYDITKTFNGKDNLLCGAATAGNMLHWWFDQNKDQIEAYLKEHPEKQKIIFNNQELFDLKAAIDTKDDQTNSKLFEYFKEKAFPYLSTKHLGVFPDHVLDMFINGYRLSLTNHGPTPVKEGSKDKRGGIFDAVFTRGVQSKLLTSRHDLKNKTLKEISDLIKQELTEGKALALSHTYANVRINHVINLWGADFDSNGNLEAIYVTDSDTNASIGMKKYFVGVNSAGKVAISAKEIEDDNIGAQVLGLFTLSTGQDIWNQTNLEHHHHHH
B10: PRT-489 (protein)
chain: B9 chain with K28V, A70R, D100S, N103D, A204G, N228E, E232K, E268K, D269E
B11: PRT-498 (protein)
chain: MVTSVWTKGVTPPTDFRKIVDGNIAYYHAPYKAGQGWYDITKAFDGGDDLLCGAATAGNMLHWWFDQNKEYIEAYLKKHPEKQKIMFGDQELLDVRKAINTKGSQKNSELFNYFRDKAFPNLSARRLGVMPDLVLDMFINGYYLNVTKTQTTDVNRTYQEKDKRGGIFDAVFTRGDQSKLLTSRHDLKNKGLKEISDLIKQELTEGKALGLSHTYANVRINHVINLWGADFDSDGNLKAIYVTDSDSNASIGMKKYFVGVNSAGKVAISAKEIKEDNIGAQVLGLFTLSTGQDIWNQTNLEHHHHHH
B12: PRT-515 (protein)
chain: MITSVWTKGVTPPTDFIKGEDVFHAPYKAGQGWYDITKAFDGGDDLLCGAATAGNMLHWWFDQNKEEIEAYLKKHPEKQKIMFGDQELLDVRKVINTKDSQTNSALFNYFKDKAFPNLSARRLGVMPDLVLDMFINGYYLNVYKTQTTDVNRQEQTKDRRGGIFDAVFGRGDQTKLLTERHDLKNKTLNEISQLIKQELTEGKALGLSHTYANVRINHVINLWGADFDAEGNLEAIYVTDSDSNASIGMKKYFVGVNSAGKVAISAKEIKEDNIGAQVLGLFTLSTGQKIWNKTNLEHHHHHH
B13: PRT-470 (protein)
chain: MVTSVWTKGVTPPTDFIYGEDVLHAPYKAGQGWYDITKTFNGKDDLLCGAATAGNMLHWWFDQNKEQIENYLKKHPEKQKINFNGEQMFDVKEAIDTKDSQLDSKLFEYFKEKAFPYLSTKHLGVFPDHVIDMFINGYRLSLTNHGPTPVKRGSKDPRGGIFDAVFTRGDQSKLLTNRHDFKEKTLKEISDLIKQELTEGKALGISHTYANVRINHVINLWGADFDAEGNLEAIYVTDSDSNASIGMKKYFVGVNSNGKVAISAKEIEEDNIGAQVLGLFTLSTGQDIWNQTNLEHHHHHH

Positions count from the first letter of the chain named.

In this data set the target is pooled human IgG (human IgG1,2,3 and 4).
In turn, B1 had an Enzyme Activity Endpoint Assay (purified): Fab′2 of 61 ng/µL, an Enzyme Activity Endpoint Assay (purified): Fc of 197 ng/µL, an Enzyme Activity Endpoint Assay (purified): IgG of 279 ng/µL and an Enzyme Activity Endpoint Assay (purified): scIgG of 896 ng/µL.
Protein B2 returned an Enzyme Activity Endpoint Assay (purified): Fab′2 of 51 ng/µL, an Enzyme Activity Endpoint Assay (purified): Fc of 29 ng/µL, an Enzyme Activity Endpoint Assay (purified): IgG of 0 ng/µL and an Enzyme Activity Endpoint Assay (purified): scIgG of 0 ng/µL.
Consider B3, for which the Enzyme Activity Endpoint Assay (purified): Fab′2 is 0 ng/µL, the Enzyme Activity Endpoint Assay (purified): Fc was found to be 13 ng/µL, the Enzyme Activity Endpoint Assay (purified): IgG worked out at 0 ng/µL and the Enzyme Activity Endpoint Assay (purified): scIgG amounted to 0 ng/µL.
Take B4: the Enzyme Activity Endpoint Assay (purified): Fab′2 turned out to be 271 ng/µL, the Enzyme Activity Endpoint Assay (purified): Fc amounted to 265 ng/µL, the Enzyme Activity Endpoint Assay (purified): IgG was found to be 470 ng/µL and the Enzyme Activity Endpoint Assay (purified): scIgG was determined as 475 ng/µL.
For B5 the same measures were 54 ng/µL, 207 ng/µL, 362 ng/µL and 1020 ng/µL.
In the case of B6, the Enzyme Activity Endpoint Assay (purified): Fab′2 worked out at 300 ng/µL, the Enzyme Activity Endpoint Assay (purified): Fc came out at 282 ng/µL, the Enzyme Activity Endpoint Assay (purified): IgG worked out at 227 ng/µL and the Enzyme Activity Endpoint Assay (purified): scIgG is 481 ng/µL.
For B7 the same measures were 0 ng/µL, 0 ng/µL, 0 ng/µL and 0 ng/µL.
For the protein B8, the Enzyme Activity Endpoint Assay (purified): Fab′2 stood at 0 ng/µL, the Enzyme Activity Endpoint Assay (purified): Fc was 0 ng/µL, the Enzyme Activity Endpoint Assay (purified): IgG is 1950 ng/µL and the Enzyme Activity Endpoint Assay (purified): scIgG is 0 ng/µL.
Turning to B9, the Enzyme Activity Endpoint Assay (purified): Fab′2 worked out at 0 ng/µL, the Enzyme Activity Endpoint Assay (purified): Fc stood at 0 ng/µL, the Enzyme Activity Endpoint Assay (purified): IgG stood at 1400 ng/µL and the Enzyme Activity Endpoint Assay (purified): scIgG stood at 0 ng/µL.
As for B10, the Enzyme Activity Endpoint Assay (purified): Fab′2 was 0 ng/µL, the Enzyme Activity Endpoint Assay (purified): Fc is 0 ng/µL, the Enzyme Activity Endpoint Assay (purified): IgG was determined as 0 ng/µL and the Enzyme Activity Endpoint Assay (purified): scIgG was 0 ng/µL.
For B11, the Enzyme Activity Endpoint Assay (purified): Fab′2 was determined as 488 ng/µL, the Enzyme Activity Endpoint Assay (purified): Fc amounted to 318 ng/µL, the Enzyme Activity Endpoint Assay (purified): IgG is 325 ng/µL and the Enzyme Activity Endpoint Assay (purified): scIgG worked out at 124 ng/µL.
For B12 the same measures were 0 ng/µL, 0 ng/µL, 0 ng/µL and 0 ng/µL.
For B13 the same measures were 1080 ng/µL, 363 ng/µL, 0 ng/µL and 0 ng/µL.
